Measurements reported in patent US20110059084A1 (BIOTEST, published 2011).

Target: T1, CD4 on primary human peripheral lymphocytes (human, UniProt P01730 26-458)
T1 construct: whole, on cells; also called human lymphocytes
Assay: flow cytometry on human PBMCs (CD3+ lymphocytes), MFI over serial dilutions of BT061
Protocol: Human PBMCs were isolated by density gradient centrifugation and stained with FITC-labelled anti-CD3 antibody (345763; Becton/Dickinson) and serial dilutions of BT061. BT061 binding was detected with an phycoerythrin labelled human IgG antibody (109-116-098; Jackson, Immunoresearch). By flow cytometric analysis the mean fluorescence intensity of CD3+ BT061 binding lymphocytes was determined.

- EC50: < 0.01 µg/mL
B1: humanized B-F5 H37L/L4M IgG1 (BT061) (antibody, V domains shown)
VH: EEQLVESGGGLVKPGGSLRLSCAASGFSFSDCRMYWLRQAPGKGLEWIGVISVKSENYGANYAESVRGRFTISRDDSKNTVYLQMNSLKTEDTAVYYCSASYYRYDVGAWFAYWGQGTLVTVSS
VL: DIVMTQSPDSLAVSLGERATINCRASKSVSTSGYSYIYWYQQKPGQPPKLLIYLASILESGVPDRFSGSGSGTDFTLTISSLQAEDVAVYYCQHSRELPWTFGQGTKVEIK
notes: also called hB-F5; humanised B-F5
